IntAct's records for PubMed 17157788

Molecular target: aatf_human AATF (UniProt Q9NY61)
Sequence (Q9NY61 whole entry): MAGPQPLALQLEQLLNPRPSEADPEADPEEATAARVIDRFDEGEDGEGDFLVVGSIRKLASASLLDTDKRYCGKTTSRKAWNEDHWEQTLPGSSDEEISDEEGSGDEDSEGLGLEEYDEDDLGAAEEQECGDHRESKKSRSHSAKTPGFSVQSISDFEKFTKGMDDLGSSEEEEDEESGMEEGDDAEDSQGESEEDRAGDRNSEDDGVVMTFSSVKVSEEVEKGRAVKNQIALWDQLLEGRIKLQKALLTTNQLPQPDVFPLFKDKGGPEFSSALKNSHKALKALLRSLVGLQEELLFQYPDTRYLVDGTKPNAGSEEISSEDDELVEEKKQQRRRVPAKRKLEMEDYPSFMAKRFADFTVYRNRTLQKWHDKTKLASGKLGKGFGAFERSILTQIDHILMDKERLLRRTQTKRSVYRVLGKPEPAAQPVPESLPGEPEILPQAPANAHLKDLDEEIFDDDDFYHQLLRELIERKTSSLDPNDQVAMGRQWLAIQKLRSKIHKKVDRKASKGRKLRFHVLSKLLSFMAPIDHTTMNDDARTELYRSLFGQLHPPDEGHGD

effect of a mutation on the interaction: disrupting interaction
Substance: Serine/threonine-protein kinase ATR (Homo sapiens), Q13535 K2327R
